The values below come from patent US20180094275A1 (AGRESEARCH, published 2018).

Assay [1] concerns the target T1, Y2H NINJA-AD (NINJA fused to GAL4 activation domain) (Arabidopsis thaliana).
T1 construct: Prey fusion; also called pDEST22-NINJA
T1 chain: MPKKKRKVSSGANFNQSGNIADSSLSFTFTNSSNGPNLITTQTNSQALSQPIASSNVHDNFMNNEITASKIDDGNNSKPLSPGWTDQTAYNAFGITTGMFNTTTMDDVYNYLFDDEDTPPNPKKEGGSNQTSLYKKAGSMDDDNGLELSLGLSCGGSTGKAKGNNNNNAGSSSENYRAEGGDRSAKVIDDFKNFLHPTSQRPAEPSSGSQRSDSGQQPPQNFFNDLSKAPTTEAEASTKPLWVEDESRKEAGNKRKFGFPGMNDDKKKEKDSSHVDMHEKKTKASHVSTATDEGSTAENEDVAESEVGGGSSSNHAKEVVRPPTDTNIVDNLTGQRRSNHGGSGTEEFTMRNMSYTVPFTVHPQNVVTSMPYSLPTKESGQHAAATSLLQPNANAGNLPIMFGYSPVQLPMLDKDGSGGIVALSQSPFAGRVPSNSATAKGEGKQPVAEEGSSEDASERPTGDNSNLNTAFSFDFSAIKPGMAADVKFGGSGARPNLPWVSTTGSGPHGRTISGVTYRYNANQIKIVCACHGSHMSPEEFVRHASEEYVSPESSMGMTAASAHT
Kind of assay: yeast two-hybrid.

The target of assay [2] is T2, Y2H BZR1-AD (BZR1 fused to GAL4 activation domain) (Arabidopsis thaliana).
T2 construct: Prey fusion; also called pDEST22-BZR1
T2 chain: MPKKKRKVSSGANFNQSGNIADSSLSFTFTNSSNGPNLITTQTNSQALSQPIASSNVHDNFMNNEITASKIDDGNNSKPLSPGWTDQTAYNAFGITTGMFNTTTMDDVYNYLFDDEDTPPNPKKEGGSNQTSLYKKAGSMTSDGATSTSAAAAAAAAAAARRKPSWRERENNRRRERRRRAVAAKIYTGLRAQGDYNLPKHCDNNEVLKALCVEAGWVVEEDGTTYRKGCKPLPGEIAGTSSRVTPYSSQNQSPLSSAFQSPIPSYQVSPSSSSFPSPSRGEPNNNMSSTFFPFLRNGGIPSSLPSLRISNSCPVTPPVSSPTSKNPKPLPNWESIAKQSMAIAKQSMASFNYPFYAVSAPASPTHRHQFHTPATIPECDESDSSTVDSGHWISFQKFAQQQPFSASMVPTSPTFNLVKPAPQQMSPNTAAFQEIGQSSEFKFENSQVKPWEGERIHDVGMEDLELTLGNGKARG
Kind of assay: yeast two-hybrid.

Assay [3] deals with T3, Y2H PPD1-AD (PPD1 fused to GAL4 activation domain) (Arabidopsis thaliana).
T3 construct: Prey fusion; also called pDEST22-PPD1
T3 chain: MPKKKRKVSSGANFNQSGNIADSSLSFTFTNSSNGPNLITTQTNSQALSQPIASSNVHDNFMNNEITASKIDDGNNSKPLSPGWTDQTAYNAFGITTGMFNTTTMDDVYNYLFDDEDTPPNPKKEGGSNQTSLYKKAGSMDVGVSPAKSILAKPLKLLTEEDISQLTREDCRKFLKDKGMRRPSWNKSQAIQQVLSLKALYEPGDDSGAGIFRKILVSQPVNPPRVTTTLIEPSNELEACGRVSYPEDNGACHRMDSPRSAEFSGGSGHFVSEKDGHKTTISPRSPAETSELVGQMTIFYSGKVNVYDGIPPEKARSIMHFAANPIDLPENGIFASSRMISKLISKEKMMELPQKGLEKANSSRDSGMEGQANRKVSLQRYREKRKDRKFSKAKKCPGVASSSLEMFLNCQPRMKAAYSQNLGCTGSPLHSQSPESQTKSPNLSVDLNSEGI
Kind of assay: yeast two-hybrid.

For assay [4], the target named is T2, Y2H BZR1-AD (BZR1 fused to GAL4 …). Kind of assay: yeast two-hybrid (ProQuest, MaV203).
Assay [5] concerns the target T4, Y2H RGA1-AD (DELLA protein RGA1 fused to GAL4 activation domain).
T4 construct: Prey fusion tested against PPD1-DBD as bait; also called DELLA (RGA1)
T4 chain: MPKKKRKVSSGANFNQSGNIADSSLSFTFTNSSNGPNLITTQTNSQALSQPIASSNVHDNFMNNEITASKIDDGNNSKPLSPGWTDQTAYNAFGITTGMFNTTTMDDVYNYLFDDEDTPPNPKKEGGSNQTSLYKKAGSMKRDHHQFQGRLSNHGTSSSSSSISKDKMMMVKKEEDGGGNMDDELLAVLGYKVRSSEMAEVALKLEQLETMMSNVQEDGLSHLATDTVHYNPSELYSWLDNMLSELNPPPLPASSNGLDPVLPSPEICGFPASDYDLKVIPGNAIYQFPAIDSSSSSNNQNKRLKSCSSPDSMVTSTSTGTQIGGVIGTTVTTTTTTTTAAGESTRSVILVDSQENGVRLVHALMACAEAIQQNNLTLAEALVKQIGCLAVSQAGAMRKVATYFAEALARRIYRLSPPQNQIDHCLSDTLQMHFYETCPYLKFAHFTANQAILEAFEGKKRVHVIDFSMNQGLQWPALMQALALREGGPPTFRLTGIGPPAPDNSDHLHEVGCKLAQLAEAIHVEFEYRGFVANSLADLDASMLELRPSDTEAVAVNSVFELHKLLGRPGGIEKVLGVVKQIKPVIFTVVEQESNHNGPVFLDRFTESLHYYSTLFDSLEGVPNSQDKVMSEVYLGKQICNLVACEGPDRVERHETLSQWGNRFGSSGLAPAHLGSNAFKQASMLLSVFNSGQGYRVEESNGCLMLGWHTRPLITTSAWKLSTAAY
Kind of assay: yeast two-hybrid, PPD1-DBD as bait, selective medium with 15 mM 3AT.

B1: Y2H TPL-DBD (TOPLESS fused to GAL4 DNA binding domain) (other)
chain: MKLLSSIEEACNICRLKKLKCSKEKPKCAKCLKNNWECRYSPKTKRSPLTRAHLTEVESRLERLEQLFLLIFPRENLNMILKMDSLQDIKALLTGLFVQDNVNKDAVTDRLASVETDMPLTLRQHRISATSSSEESSNKGQRQLTVSSRSNQTSLYKKAGSMSSLSRELVFLILQFLDEEKFKETVHKLEQESGFFFNMKYFEDEVHNGNWDEVEKYLSGFTKVDDNRYSMKIFFEIRKQKYLEALDKHDRPKAVDILVKDLKVFSTFNEELFKEITQLLTLENFRENEQLSKYGDTKSARAIMLVELKKLIEANPLFRDKLQFPTLRNSRLRTLINQSLNWQHQLCKNPRPNPDIKTLFVDHSCGPPNGARAPSPVNNPLLGGIPKAGGFPPLGAHGPFQPTASPVPTPLAGWMSSPSSVPHPAVSAGAIALGGPSIPAALKHPRTPPTNASLDYPSADSEHVSKRTRPMGISDEVNLGVNMLPMSFSGQAHGHSPAFKAPDDLPKTVARTLSQGSSPMSMDFHPIKQTLLLVGTNVGDIGLWEVGSRERLVQKTFKVWDLSKCSMPLQAALVKEPVVSVNRVIWSPDGSLFGVAYSRHIVQLYSYHGGEDMRQHLEIDAHVGGVNDISFSTPNKQLCVITCGDDKTIKVWDAATGVKRHTFEGHEAPVYSVCPHYKENIQFIFSTALDGKIKAWLYDNMGSRVDYDAPGRWCTTMAYSADGTRLFSCGTSKDGESFIVEWNESEGAVKRTYQGFHKRSLGVVQFDTTKNRYLAAGDDFSIKFWDMDAVQLLTAIDGDGGLQASPRIRFNKEGSLLAVSGNENVIKIMANSDGLRLLHTFENISSESSKPAINSIAAAAAAAATSAGHADRSANVVSIQGMNGDSRNMVDVKPVITEESNDKSKIWKLTEVSEPSQCRSLRLPENLRVAKISRLIFTNSGNAILALASNAIHLLWKWQRNERNATGKATASLPPQQWQPASGILMTNDVAETNPEEAVPCFALSKNDSYVMSASGGKISLFNMMTFKTMATFMPPPPAATFLAFHPQDNNIIAIGMDDSTIQIYNVRVDEVKSKLKGHSKRITGLAFSNVLNVLVSSGADAQLCVWNTDGWEKQRSKVLPLPQGRPNSAPSDTRVQFHQDQAHFLVVHETQLAIYETTKLECMKQWAVRESLAPITHATFSCDSQLVYASFMDATVCVFSSANLRLRCRVNPSAYLPASLSNSNVHPLVIAAHPQEPNMFAVGLSDGGVHIFEPLESEGKWGVAPPAENGSASGAPTAPSVGASASDQPQR
notes: Bait fusion; also called pDEST32-TPL
As to B1, the binding result in assay [1] and in assay [2] was “binds” throughout.

B2: Y2H PPD1-DBD (PPD1 fused to GAL4 DNA binding domain) (other)
chain: MKLLSSIEEACNICRLKKLKCSKEKPKCAKCLKNNWECRYSPKTKRSPLTRAHLTEVESRLERLEQLFLLIFPRENLNMILKMDSLQDIKALLTGLFVQDNVNKDAVTDRLASVETDMPLTLRQHRISATSSSEESSNKGQRQLTVSSRSNQTSLYKKAGSMDVGVSPAKSILAKPLKLLTEEDISQLTREDCRKFLKDKGMRRPSWNKSQAIQQVLSLKALYEPGDDSGAGIFRKILVSQPVNPPRVTTTLIEPSNELEACGRVSYPEDNGACHRMDSPRSAEFSGGSGHFVSEKDGHKTTISPRSPAETSELVGQMTIFYSGKVNVYDGIPPEKARSIMHFAANPIDLPENGIFASSRMISKLISKEKMMELPQKGLEKANSSRDSGMEGQANRKVSLQRYREKRKDRKFSKAKKCPGVASSSLEMFLNCQPRMKAAYSQNLGCTGSPLHSQSPESQTKSPNLSVDLNSEGI
notes: Bait fusion expressed in yeast MaV203; also called pDEST32-PPD1; PPD1 bait
As to B2, the binding result is reported as “binds” in assay [1], “binds” in assay [3], “no binding” in assay [4] and “binds” in assay [5].
